Experimental data taken from patent publication US20040259112A1.

What was measured:
[1] = molecular target: human vimentin (full length) (human) (UniProt P08670); test: quantitative FACS (quantum simply cellular beads) on MCF-7 cells at saturating antibody (50 µg)
[2] = molecular target: human vimentin (full length) (human) (UniProt P08670); test: Scatchard analysis, intact cell radioimmunoassay with 125I-labeled antibody on MDA/mito cells; average of 5 determinations
[3] = molecular target: human vimentin (full length) (human) (UniProt P08670); test: FACS, indirect immunofluorescence on HL60 cells with 2.5 µg to 40 µg antibody; isotype control subtracted
[4] = molecular target: human vimentin (full length) (human) (UniProt P08670); test: cell-based or functional assay
[5] = molecular target: human vimentin (full length) (human) (UniProt P08670); test: quantitative FACS (quantum simply cellular beads) on HL60 cells at saturating antibody (40 µg)
[6] = molecular target: human vimentin (full length) (human) (UniProt P08670); test: Scatchard analysis, intact cell radioimmunoassay with 125I-labeled antibody on MDA cells
[7] = molecular target: human vimentin (full length) (human) (UniProt P08670); test: quantitative FACS (quantum simply cellular beads) on HL60/AR cells at saturating antibody (40 µg)
[8] = molecular target: human vimentin (full length) (human) (UniProt P08670); test: quantitative FACS (quantum simply cellular beads) on MCF-7/AR cells at saturating antibody (50 µg)

human vimentin (full length) (human), sequence (P08670 other isoform, or with tags, fused parts or gaps limits assumed): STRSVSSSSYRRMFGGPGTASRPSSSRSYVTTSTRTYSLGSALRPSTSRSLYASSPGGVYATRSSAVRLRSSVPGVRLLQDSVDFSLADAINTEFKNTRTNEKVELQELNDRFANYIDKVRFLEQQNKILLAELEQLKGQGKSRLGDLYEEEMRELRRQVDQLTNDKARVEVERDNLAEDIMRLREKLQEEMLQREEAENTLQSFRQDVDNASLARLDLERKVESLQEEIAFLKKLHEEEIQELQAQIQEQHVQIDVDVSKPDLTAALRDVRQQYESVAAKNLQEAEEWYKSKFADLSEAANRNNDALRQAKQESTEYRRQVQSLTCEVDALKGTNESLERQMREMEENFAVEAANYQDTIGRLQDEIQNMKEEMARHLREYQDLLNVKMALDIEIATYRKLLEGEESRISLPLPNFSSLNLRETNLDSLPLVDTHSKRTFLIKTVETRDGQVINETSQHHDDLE

How did the antibody molecules bound per cell (molecules of vimentin per cell) (molecules per cell) [1] turn out when “mouse monoclonal anti-vimentin antibody (clone V9, NeoMarker MS-129-P)” was run?
Its antibody molecules bound per cell (molecules of vimentin per cell) (molecules per cell) is 14600.

And the Kd [2]?
The Kd was 5.7 nM.

What about the fluorescence intensity (RFI) [3] of the same substance?
Its fluorescence intensity (RFI) is 0.2 to 0.9 RFI.

And the % internalization of 125I-labeled antibody, MCF-7/AR cells in suspension (difference between 4 and 37° C.) [4]?
The % internalization of 125I-labeled antibody, MCF-7/AR cells in suspension (difference between 4 and 37° C.) was 38.2%.

What about the increase in cytotoxicity of 125I-labeled antibody on HL60/AR against HL60 (MTT based assay) [4] of the same substance?
The increase in cytotoxicity of 125I-labeled antibody on HL60/AR against HL60 (MTT based assay) was 10%.

And the percent internalization of vimentin, adherent MCF-7/AR cells (difference between 4 and 37° C.) [4]?
Its percent internalization of vimentin, adherent MCF-7/AR cells (difference between 4 and 37° C.) is 11.3%.

What about the percent internalization of vimentin, adherent MDA cells (difference between 4 and 37° C.) [4] of the same substance?
The percent internalization of vimentin, adherent MDA cells (difference between 4 and 37° C.) was 25.3%.

And the percent internalization of vimentin, adherent MDA/AR cells (difference between 4 and 37° C.) [4]?
The percent internalization of vimentin, adherent MDA/AR cells (difference between 4 and 37° C.) was 24.8%.

And the percent internalization of vimentin, adherent MDA/mito cells (difference between 4 and 37° C.) [4]?
The percent internalization of vimentin, adherent MDA/mito cells (difference between 4 and 37° C.) was 8.9%.

And the antibody molecules bound per cell (molecules of vimentin per cell) (molecules per cell) [5]?
Its antibody molecules bound per cell (molecules of vimentin per cell) (molecules per cell) is 186.

What about the Kd [6] of the same substance?
The Kd was 9.3 nM.

What about the antibody molecules bound per cell (molecules of vimentin per cell) (molecules per cell) [7] of the same substance?
The antibody molecules bound per cell (molecules of vimentin per cell) (molecules per cell) was 5050.

And the antibody molecules bound per cell (molecules of vimentin per cell) (molecules per cell) [8]?
The antibody molecules bound per cell (molecules of vimentin per cell) (molecules per cell) was 22000.
